Patent US20180208648A1 (SCHOLAR ROCK, published 2018)

T1: human proGDF11 (human, UniProt O95390 25-407, biotinylated (NHS-PEG4-Biotin), site not stated)
T1 sequence: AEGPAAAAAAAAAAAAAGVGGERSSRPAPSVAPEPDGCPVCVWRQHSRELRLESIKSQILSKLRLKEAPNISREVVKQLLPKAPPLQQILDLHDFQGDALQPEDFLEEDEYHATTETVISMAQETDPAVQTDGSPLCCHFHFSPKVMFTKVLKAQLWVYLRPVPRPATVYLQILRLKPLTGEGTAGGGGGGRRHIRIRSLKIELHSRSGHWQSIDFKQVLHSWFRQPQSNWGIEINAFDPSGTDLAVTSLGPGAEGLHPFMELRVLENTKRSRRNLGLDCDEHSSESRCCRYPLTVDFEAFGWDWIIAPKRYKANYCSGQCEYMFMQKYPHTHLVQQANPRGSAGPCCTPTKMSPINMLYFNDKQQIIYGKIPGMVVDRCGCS

T2: murine proGDF11 (mouse, UniProt Q9Z1W4 25-405, biotinylated, site not stated)
T2 construct: also called mu proGDF11
T2 sequence: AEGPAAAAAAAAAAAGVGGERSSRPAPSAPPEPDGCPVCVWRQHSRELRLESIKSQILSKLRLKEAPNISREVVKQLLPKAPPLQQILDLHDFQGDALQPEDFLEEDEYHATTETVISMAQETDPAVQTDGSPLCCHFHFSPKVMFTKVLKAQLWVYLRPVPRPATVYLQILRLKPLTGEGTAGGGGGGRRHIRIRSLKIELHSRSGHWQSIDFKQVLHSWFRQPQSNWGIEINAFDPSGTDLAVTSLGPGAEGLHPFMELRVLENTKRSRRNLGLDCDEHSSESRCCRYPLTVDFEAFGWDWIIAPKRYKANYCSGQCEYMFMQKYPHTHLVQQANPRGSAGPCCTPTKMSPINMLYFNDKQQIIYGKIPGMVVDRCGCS

T3: human mature GDF11 (human, UniProt O95390 299-407, biotinylated, site not stated)
T3 construct: Growth factor domain; also called GDF11 mature growth factor
T3 sequence: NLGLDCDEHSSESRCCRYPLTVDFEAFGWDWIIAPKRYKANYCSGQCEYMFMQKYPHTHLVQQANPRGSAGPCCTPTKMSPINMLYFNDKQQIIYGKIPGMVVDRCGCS

T4: human proGDF11 ARM8 (human, biotinylated, site not stated)
T4 construct: GDF11 having the GDF8 arm domain
T4 chain: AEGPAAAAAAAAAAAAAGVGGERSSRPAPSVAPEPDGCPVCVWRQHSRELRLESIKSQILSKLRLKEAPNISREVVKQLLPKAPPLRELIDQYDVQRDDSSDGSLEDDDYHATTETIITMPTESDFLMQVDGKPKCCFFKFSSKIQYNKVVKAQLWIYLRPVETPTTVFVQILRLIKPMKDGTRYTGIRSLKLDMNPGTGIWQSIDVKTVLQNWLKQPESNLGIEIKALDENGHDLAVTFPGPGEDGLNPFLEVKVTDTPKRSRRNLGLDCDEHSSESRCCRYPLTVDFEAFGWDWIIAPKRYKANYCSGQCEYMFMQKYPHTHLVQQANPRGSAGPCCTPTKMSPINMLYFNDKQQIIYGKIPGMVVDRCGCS

T5: human proGDF8 (human, UniProt O14793 24-375, biotinylated, site not stated)
T5 construct: also called hu proGDF8; human proMyostatin
T5 sequence: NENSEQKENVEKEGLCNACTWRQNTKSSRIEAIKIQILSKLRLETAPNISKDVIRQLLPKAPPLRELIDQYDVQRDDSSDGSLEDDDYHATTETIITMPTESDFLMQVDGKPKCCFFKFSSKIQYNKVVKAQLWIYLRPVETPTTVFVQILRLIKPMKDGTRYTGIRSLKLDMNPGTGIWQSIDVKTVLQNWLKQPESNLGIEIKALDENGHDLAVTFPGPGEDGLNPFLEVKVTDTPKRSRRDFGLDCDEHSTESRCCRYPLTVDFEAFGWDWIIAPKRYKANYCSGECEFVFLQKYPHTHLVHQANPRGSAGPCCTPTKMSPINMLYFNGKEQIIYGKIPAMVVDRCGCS

T6: human prodomain GDF11 ARM8 (human, biotinylated, site not stated)
T6 construct: GDF11 prodomain having the GDF8 arm domain; also called human GDF11 ARM8 prodomain
T6 chain: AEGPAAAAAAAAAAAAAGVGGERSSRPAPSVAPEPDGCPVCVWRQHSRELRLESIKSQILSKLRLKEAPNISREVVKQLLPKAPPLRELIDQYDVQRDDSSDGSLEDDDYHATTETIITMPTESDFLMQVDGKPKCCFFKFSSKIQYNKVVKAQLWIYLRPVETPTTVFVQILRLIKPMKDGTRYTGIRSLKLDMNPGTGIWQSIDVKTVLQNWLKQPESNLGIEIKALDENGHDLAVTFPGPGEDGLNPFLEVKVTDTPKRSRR


Experiments:
human proGDF11 [1] = target: T1, human proGDF11; assay: cell-based or functional assay
human proGDF11 [2] = target: T1, human proGDF11; assay: BLI (ForteBio Octet)
murine proGDF11 [3] = target: T2, murine proGDF11; assay: BLI (ForteBio Octet)
human proGDF11 [4] = target: T1, human proGDF11; assay: cell-based or functional assay; remark: listed apart in the source
murine proGDF11 [5] = target: T2, murine proGDF11; assay: cell-based or functional assay
human mature GDF11 = target: T3, human mature GDF11; assay: ELISA, biotinylated antigen on neutravidin plate
From the text: (§1) Candidate clones were converted to human IgG1 format. Full-length IgG antibodies were further characterized by ELISA for binding to the human and murine pro- and latent-forms of myostatin and GDF11. Antibodies were also screened for binding to the Myostatin prodomain (SEQ ID NO: 85), proTGFDβ1 (human and murine), the mature growth factor of Myostatin (SEQ ID NO: 89), the GDF11 mature growth factor (SEQ ID NO: 90), and proActivin A (SEQ ID NO: 84). Chimeric constructs which swapped portions of the prodomains of Myostatin and GDF11 were designed and produced. For example proGDF11 arm8 (SEQ ID NO: 112) refers to GDF11 having the GDF8 arm domain, and prodomain GDF11 arm8 (SEQ ID NO: 114) refers to the GDF11 prodomain having the GDF8 arm domain. These chimeric proteins were assayed for interaction with screening antibodies by ELISA and allowed for the assessment of binding of antibodies to the ARM or straight jacket portions of the GDF11 prodomain complex. Antibodies were selected based on their cross-reactivity with pro- and latent human and murine GDF11, with no interactions with GDF8, Activin, or TGFβ proteins. Activin A is a homodimer of inhibin-beta A subunits. For example, Inhibin-beta A can heterodimerize with other proteins to produce different Activin proteins.
(§2) Enzyme-linked immunosorbent assay (ELISA) analysis is carried out to assess antibody binding. 96-well ELISA assay plates are coated with neutravidin, a deglycosylated version of streptavidin with a more neutral pH. Target proteins are expressed with or without histidine (His) tags and subjected to biotinylation. Biotinylated target proteins are incubated with neutravidin-coated ELISA assay plates for two hours at room temperature and unbound proteins are removed by washing three times with wash buffer (either 25 mM Tris, 150 mM NaCl, 0.05% TWEEN®-20, or 20 mM Hepes pH 7.5, 500 mM NaCl, 0.05% TWEEN®-20). Primary antibodies being tested are added to each well and allowed to incubate at room temperature for 1 hour or more. Unbound antibody is then removed by washing three times with wash buffer. Secondary antibodies capable of binding to primary antibodies being tested and conjugated with detectable labels are then incubated in each well for 30 minutes at room temperature. Unbound secondary antibodies are removed by washing three times with wash buffer.

human proGDF11 ARM8 = target: T4, human proGDF11 ARM8; assay: ELISA, biotinylated antigen on neutravidin plate
From the text: as §1, §2

human proGDF8 = target: T5, human proGDF8; assay: ELISA, biotinylated antigen on neutravidin plate
From the text: as §1, §2

[6] = target: T6, human prodomain GDF11 ARM8; assay: ELISA, biotinylated antigen on neutravidin plate
From the text: as §1, §2

EC50, proGDF11 activation assay at 50 nM proGDF11 (human proGDF11 [1]) [nM] | Kd (human proGDF11 [2]) [nM] | Kd (murine proGDF11 [3]) [nM] | Human proGDF11 % Inhibition (proGDF11 activation assay, CAGA luciferase reporter in 293T cells) (human proGDF11 [4]) [%] | Murine proGDF11 % inhibition (proGDF11 activation assay, CAGA luciferase reporter in 293T cells) (murine proGDF11 [5]) [%] | binding result (human mature GDF11) | binding result (human proGDF11 ARM8) | binding result (human proGDF8) | binding result [6] | Binder
87.1 | 0.49 | 0.848 | 91 | 80 | no binding | – | – | – | GDF11 Inh-1 (antibody, V domains shown, also called Clone GDF11 Inh-1) VH: EVQLLESRGGLVQPGRSLRLSCAASGFTFDDYAMHWVRQAPGKGLEWVSGISWNSGSIGYADSVKGRFTISRDNTKNSLYLQMNSLRAEDTGVYYCAREVTGDLDYWGQGTLVTVSS VL: EIVMTQSPGTLSLSPGERATLSCRASQFLSSTYLAWYQQRPGQAPRLLIYSASNRATGVPDRFSGSGSGTDFTLKISRVEAEDVGVYYCMQATHWPYTFGQGTKLEIKR
– | 2.12 | – | 74 | 53 | no binding | – | – | – | GDF11 Inh-7 (antibody, V domains shown, also called Clone GDF11 Inh-7) VH: EVQLVQSGGGLVQPGGSLRLSCAASGFTFSSYSMNWVRQAPGKGLEWVSYISSSSSTIYYADSVKGRFTISRDNAKNSLYLQMNSLRAEDTAVYYCARDGIYYDSSGYYDLFDYWGQGTLVTVSS VL: not shown
– | 0.71 | 0.937 | 87 | 88 | no binding | no binding | no binding | no binding | GDF11 Inh-3 (antibody, V domains shown, also called Clone GDF11 Inh-3) VH: QVQLVQSGGGVVQPGRSLRLSCAASGFTFSSYAMHWVRQAPGKGLEWVAVISYDGSNEYYADSVKGRFTISRDNSKNTLYLQMNSLRAEDTAVYYCAKDFWSGYPQYNWFDPWGQGTLVTVSS VL: EIVMTQSPATLSLSAGERATLSCRASQSVSNYLAWYQQKPGQAPRLLIYDASNRATGIPARFSGSGSGTDFTLTISSLEPEDFAVYYCQQYGSAPLTFGGGTNVEIKR
